Laboratory results: patent US20160017024A1 (Five Prime, published 2016)

Experiments:
[1] = target: full length human LTK with an HA tag at the C-terminus, expressed on transfected cells (human, UniProt P29376 17-864); assay: cell-based or functional assay
Mouse LTK ECD-Fc = target: T1, Mouse LTK ECD-Fc (mouse); assay: SPR (Biacore T100), ECD-Fc captured on Protein A CM4 chip
T1 construct: also called mouse LTK ECD-Fc (human Fc)
Procedure: The kₐ, kd, and KD for binding of human FAM150A to human LTK ECD-Fc (SEQ ID NO: 23) and mouse LTK ECD-Fc (SEQ ID NO: 25) was determined as follows. Binding kinetics of FAM150A to human and mouse LTK ECD-Fc fusion proteins was determined using Biacore T100 SPR (GE Healthcare Life Sciences, Piscataway, N.J.). LTK ECD-Fc fusions were captured on a CM4 sensor chip immobilized with Protein A (Thermo Scientific, Rockford, Ill.). HBS-P (GE Healthcare Life Sciences, Piscataway, N.J.) was used as the running and dilution buffer. Capture levels of the ECD-Fc fusions were adjusted to approximately 300-500RU so that binding values would be greater than the levels of non-specific binding to the reference flow cell. FAM150A was injected at […] (100 nM, 33.3 nM, 11.1 nM, 3.7 nM, 1.2 nM, 0.41 nM, 0.13 nM, 0.046 nM and 0 nM) for 120 seconds. The association constant, dissociation constant, and affinity of FAM150A for LTK Fc-ECD fusions was calculated using the Biacore T100 Evaluation software package using the 1:1 binding model.

full length human LTK with an HA tag at the C-terminus, expressed on transfected cells, sequence (P29376 17-864): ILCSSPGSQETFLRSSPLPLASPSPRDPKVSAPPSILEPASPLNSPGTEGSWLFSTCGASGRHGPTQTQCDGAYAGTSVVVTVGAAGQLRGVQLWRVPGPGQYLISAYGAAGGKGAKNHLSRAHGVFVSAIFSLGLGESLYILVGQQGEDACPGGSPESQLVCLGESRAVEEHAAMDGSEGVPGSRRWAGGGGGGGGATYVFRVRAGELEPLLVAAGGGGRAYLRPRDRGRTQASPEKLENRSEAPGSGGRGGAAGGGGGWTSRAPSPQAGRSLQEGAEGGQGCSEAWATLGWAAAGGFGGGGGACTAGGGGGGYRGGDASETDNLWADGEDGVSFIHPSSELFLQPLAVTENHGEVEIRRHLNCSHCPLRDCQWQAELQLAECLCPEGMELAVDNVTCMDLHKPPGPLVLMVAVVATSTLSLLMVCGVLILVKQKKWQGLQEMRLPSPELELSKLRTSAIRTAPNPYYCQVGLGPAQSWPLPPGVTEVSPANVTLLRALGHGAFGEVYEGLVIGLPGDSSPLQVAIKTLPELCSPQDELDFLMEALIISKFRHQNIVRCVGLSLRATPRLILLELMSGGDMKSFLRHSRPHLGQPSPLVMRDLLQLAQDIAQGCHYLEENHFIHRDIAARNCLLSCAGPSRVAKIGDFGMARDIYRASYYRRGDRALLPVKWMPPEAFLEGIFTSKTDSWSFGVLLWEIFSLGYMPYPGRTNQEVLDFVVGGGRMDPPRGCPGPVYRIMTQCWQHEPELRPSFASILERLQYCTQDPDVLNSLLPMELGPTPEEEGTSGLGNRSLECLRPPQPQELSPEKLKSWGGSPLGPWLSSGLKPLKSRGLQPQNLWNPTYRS
T1 sequence (chain, as listed by the source limits assumed): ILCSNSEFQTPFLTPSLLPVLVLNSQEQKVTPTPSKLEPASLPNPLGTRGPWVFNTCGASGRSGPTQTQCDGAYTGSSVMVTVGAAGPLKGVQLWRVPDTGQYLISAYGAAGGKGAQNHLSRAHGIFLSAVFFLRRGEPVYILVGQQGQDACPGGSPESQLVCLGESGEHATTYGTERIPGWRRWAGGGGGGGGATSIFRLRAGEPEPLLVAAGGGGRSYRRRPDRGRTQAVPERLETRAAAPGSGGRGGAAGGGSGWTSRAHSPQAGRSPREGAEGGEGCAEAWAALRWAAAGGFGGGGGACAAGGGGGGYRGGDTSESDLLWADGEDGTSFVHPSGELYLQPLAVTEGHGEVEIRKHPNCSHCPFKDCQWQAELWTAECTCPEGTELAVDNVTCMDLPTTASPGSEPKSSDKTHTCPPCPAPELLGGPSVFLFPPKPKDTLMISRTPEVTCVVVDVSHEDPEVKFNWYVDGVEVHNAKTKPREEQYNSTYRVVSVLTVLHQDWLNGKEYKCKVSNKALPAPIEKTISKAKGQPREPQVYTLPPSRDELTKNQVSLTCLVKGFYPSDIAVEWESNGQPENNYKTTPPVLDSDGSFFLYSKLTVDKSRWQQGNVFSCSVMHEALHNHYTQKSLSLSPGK

B1: Human FAM150B (ligand)
chain: GAEPREPADGQALLRLVVELVQELRKHHSAEHKGLQLLGRDCALGRAEAAGLGPSPEQRVEIVPRDLRMKDKFLKHLTGPLYFSPKCSKHFHRLYHNTRDCTIPAYYKRCARLLTRLAVSPVCMEDKQ
For B1, which “induction of LTK phosphorylation relative to an unrelated control protein” value [1] is on record?
Its value is greater than 2 fold.

B2: Human FAM150A (ligand)
chain: RPRGRRGARVTDKEPKPLLFLPAAGAGRTPSGSRSAEIFPRDSNLKDKFIKHFTGPVTFSPECSKHFHRLYYNTRECSTPAYYKRCARLLTRLAVSPLCSQT
notes: Expressed in HEK 293 6E cells (or HEK293T supernatant) and secreted
With B2 as the binder, how does the “EC50 for FAM150A-induced LTK phosphorylation” value [1] read?
The value was 1.96 nM.

And the “induction of LTK phosphorylation relative to an unrelated control protein” value [1]?
The value was greater than 20 fold.

And the “fold lower affinity than to human LTK ECD-Fc” value (Mouse LTK ECD-Fc)?
Its value is roughly 30 fold.
